Test results as given in article PMC10245933.
Like-named read-outs stand apart in the source and are kept apart here.

Assays:
[1] = target: NOPLight (human (NOPR part)); test: sensor fluorescence kinetics
[2] = target: NOPLight (human (NOPR part)); test: other fluorescence titration
[3] = target: NOPLight (human (NOPR part)); test: other fluorescence titration; remark: listed apart in the source
[4] = target: NOPLight (human (NOPR part)); test: other fluorescence titration; remark: listed apart in the source
[5] = target: NOPLight (human (NOPR part)); test: sensor fluorescence in brain slices

## Nociceptin/orphanin-FQ peptide (from UniProt Q13519 130-146)
[1]
  τON (time constant of signal activation): 595 ms
[2]
  EC50: 0.0286 µM
  ΔF/F0 upon N/OFQ: 388%
[3]
  ΔF/F0 upon N/OFQ: 378%
[4]
  EC50: 0.0428 µM

## endogenous N/OFQ released from PNOC neurons (peptide)
[5]
  F/F0 upon CNO-evoked release: 1.6%
